This is an account of results in patent US20080058636A1, “METHODS OF MYOCARDIAL IMAGING” (Epix Pharmaceuticals, Inc., priority 2005, published 2008).

Assay [1] deals with human collagen type I (acid soluble, extracted from placenta, Sigma C7774) (human) (UniProt P02452). The assay can be described thus: dried collagen assay.
For assay [2], the target named is rat collagen (acid soluble, type I, rat tail, Upstate 08-115) (rat) (UniProt P02454). Kind of assay: dried collagen assay.
Note: test concentration or dose not given here.

Chain of rat collagen (acid soluble, type I, rat tail, Upstate 08-115) (rat) (P02454 152-1207, chain 1 of 2): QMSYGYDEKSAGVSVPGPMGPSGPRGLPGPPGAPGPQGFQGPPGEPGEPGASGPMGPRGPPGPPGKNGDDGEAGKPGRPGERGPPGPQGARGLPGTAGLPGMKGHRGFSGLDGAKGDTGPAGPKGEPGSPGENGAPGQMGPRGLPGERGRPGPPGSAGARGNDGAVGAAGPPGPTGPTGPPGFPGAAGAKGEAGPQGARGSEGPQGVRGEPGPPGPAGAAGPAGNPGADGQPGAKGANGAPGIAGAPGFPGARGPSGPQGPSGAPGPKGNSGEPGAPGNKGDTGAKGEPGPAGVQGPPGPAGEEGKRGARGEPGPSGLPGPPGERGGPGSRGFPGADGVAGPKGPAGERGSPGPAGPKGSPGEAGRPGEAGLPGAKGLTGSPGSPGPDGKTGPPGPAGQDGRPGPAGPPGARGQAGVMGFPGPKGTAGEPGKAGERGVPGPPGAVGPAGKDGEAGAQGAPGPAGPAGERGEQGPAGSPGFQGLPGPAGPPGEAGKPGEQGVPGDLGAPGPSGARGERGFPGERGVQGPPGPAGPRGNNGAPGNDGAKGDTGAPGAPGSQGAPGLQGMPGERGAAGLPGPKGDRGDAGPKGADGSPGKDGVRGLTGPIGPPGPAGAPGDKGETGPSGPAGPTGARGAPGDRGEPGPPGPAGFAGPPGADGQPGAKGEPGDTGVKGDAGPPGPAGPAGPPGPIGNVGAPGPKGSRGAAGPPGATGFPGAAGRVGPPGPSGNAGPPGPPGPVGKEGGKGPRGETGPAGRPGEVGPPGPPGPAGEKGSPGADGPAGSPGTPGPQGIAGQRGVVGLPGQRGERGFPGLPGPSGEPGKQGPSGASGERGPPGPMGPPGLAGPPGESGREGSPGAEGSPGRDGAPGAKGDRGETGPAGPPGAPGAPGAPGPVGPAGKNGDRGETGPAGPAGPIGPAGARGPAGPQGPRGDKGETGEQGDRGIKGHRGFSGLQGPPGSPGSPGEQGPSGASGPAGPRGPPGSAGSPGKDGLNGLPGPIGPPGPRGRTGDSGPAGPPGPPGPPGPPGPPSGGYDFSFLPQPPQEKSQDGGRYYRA
Chain of rat collagen (acid soluble, type I, rat tail, Upstate 08-115) (rat) (P02466 86-1125, chain 2 of 2, further chain): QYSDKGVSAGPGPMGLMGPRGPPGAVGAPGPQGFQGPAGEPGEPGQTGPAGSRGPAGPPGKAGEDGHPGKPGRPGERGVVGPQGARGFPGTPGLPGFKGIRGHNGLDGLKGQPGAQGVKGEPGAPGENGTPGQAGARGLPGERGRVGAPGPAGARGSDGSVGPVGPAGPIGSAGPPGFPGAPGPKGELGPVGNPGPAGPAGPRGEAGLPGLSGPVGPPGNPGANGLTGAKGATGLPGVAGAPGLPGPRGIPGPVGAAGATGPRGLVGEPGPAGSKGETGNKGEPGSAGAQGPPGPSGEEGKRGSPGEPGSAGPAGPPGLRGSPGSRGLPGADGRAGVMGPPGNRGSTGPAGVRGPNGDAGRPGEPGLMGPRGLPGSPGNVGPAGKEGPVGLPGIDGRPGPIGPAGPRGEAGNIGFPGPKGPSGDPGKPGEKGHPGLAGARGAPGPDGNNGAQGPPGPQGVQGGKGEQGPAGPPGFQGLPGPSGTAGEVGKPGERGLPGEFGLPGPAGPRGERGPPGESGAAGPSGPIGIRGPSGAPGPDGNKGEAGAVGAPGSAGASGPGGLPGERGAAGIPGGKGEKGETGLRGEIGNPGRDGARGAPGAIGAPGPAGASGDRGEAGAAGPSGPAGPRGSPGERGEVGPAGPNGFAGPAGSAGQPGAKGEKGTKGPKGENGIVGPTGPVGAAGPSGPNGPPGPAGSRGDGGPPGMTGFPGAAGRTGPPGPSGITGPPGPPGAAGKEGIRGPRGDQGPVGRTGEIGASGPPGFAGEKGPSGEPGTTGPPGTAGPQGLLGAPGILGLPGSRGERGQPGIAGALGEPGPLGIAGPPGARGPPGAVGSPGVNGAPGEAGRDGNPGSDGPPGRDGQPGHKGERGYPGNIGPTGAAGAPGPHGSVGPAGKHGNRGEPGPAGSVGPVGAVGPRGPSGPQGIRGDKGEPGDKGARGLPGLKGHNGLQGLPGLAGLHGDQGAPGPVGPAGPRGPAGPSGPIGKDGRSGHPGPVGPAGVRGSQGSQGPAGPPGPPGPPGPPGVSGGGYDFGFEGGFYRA
Chain of human collagen type I (acid soluble, extracted from placenta, Sigma C7774) (human) (P02452 162-1218 limits assumed, chain 1 of 2): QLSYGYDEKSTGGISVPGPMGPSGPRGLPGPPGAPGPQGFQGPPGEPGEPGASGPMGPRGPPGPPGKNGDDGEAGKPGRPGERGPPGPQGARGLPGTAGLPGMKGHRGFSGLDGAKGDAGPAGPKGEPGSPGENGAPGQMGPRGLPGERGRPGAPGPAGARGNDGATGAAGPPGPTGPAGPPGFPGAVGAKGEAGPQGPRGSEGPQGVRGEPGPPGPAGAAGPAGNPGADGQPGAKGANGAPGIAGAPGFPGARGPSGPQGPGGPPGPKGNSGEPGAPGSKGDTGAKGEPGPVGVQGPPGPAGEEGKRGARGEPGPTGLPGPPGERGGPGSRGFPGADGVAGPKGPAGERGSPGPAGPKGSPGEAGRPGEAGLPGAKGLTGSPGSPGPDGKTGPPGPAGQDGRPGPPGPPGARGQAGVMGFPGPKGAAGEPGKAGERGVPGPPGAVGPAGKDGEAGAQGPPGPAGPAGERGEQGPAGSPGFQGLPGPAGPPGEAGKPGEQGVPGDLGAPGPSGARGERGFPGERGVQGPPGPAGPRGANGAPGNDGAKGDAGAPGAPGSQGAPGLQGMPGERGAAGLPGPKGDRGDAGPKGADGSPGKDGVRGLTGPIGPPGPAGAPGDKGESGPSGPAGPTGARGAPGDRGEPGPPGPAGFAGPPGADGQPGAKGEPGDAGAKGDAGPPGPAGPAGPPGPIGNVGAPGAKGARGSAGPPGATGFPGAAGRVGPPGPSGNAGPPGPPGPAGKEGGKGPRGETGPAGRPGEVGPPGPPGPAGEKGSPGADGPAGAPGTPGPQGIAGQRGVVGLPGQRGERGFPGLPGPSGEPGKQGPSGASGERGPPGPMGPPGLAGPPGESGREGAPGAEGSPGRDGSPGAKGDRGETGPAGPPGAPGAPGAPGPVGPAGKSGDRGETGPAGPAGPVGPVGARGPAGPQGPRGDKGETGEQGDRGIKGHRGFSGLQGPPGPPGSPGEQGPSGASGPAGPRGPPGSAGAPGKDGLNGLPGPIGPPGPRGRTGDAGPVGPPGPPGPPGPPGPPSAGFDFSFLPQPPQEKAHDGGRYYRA
Chain of human collagen type I (acid soluble, extracted from placenta, Sigma C7774) (human) (P08123 80-1119 limits assumed, chain 2 of 2, further chain): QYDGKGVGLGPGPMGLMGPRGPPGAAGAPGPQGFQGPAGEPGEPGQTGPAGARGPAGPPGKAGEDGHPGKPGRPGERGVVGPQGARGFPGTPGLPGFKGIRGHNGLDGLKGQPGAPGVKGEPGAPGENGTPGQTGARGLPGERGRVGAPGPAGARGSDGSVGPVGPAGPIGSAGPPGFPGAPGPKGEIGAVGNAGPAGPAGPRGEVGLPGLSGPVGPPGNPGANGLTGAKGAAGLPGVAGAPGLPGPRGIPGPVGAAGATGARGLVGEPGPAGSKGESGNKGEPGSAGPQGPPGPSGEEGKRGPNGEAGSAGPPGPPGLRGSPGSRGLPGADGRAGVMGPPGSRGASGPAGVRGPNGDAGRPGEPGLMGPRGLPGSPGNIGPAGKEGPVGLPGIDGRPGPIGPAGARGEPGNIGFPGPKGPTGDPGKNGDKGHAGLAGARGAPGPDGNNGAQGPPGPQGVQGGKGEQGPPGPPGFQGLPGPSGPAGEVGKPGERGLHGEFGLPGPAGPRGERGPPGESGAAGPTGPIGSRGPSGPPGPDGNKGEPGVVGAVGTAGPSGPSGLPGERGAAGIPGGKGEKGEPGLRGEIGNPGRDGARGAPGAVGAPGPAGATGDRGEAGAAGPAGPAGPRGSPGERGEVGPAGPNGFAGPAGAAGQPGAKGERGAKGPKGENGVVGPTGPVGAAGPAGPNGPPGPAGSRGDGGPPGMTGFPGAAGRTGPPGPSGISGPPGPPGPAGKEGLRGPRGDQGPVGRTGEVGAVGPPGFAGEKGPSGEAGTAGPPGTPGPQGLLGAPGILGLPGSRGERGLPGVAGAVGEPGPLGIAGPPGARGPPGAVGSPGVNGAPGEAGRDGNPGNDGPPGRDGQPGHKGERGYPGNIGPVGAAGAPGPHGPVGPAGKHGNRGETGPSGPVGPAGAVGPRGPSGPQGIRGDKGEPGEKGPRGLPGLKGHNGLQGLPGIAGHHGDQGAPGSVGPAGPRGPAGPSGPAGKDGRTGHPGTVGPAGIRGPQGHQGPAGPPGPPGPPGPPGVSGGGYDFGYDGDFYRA

Consider DWTCSYDEYTWHCNYE [SEQ ID NO: 182], for which the % Collagen Binding in assay [1] stood at 89%; in assay [2] it was 86%.

For the molecule DWTCSLDEYTWHCNYE [SEQ ID NO: 183], the % Collagen Binding is 73% in assay [1] and 63% in assay [2].

Consider DWTCSRDEYTWHCNYE [SEQ ID NO: 181], for which the % Collagen Binding in assay [1] was found to be 87%; in assay [2], 86%.
